The test addresses flag-tagged Ran Q69L (GTPase-inactive mutant, RanGTP locked form), P62826. Nature of the test: co-IP. Particulars: remark: other sources report otherwise.

B1: EGFP-tagged full length human IPO5 (importin 5), O00410-3 1-1115 (natural protein)
chain: MPEDQVGKLEATENTISAMAAAAAEQQQFYLLLGNLLSPDNVVRKQAEETYENIPGQSKITFLLQAIRNTTAAEEARQMAAVLLRRLLSSAFDEVYPALPSDVQTAIKSELLMIIQMETQSSMRKKVCDIAAELARNLIDEDGNNQWPEGLKFLFDSVSSQNVGLREAALHIFWNFPGIFGNQQQHYLDVIKRMLVQCMQDQEHPSIRTLSARATAAFILANEHNVALFKHFADLLPGFLQAVNDSCYQNDDSVLKSLVEIADTVPKYLRPHLEATLQLSLKLCGDTSLNNMQRQLALEVIVTLSETAAAMLRKHTNIVAQTIPQMLAMMVDLEEDEDWANADELEDDDFDSNAVAGESALDRMACGLGGKLVLPMIKEHIMQMLQNPDWKYRHAGLMALSAIGEGCHQQMEGILNEIVNFVLLFLQDPHPRVRYAACNAVGQMATDFAPGFQKKFHEKVIAALLQTMEDQGNQRVQAHAAAALINFTEDCPKSLLIPYLDNLVKHLHSIMVLKLQELIQKGTKLVLEQVVTSIASVADTAEEKFVPYYDLFMPSLKHIVENAVQKELRLLRGKTIECISLIGLAVGKEKFMQDASDVMQLLLKTQTDFNDMEDDDPQISYMISAWARMCKILGKEFQQYLPVVMGPLMKTASIKPEVALLDTQDMENMSDDDGWEFVNLGDQQSFGIKTAGLEEKSTACQMLVCYAKELKEGFVEYTEQVVKLMVPLLKFYFHDGVRVAAAESMPLLLECARVRGPEYLTQMWHFMCDALIKAIGTEPDSDVLSEIMHSFAKCIEVMGDGCLNNEHFEELGGILKAKLEEHFKNQELRQVKRQDEDYDEQVEESLQDEDDNDVYILTKVSDILHSIFSSYKEKVLPWFEQLLPLIVNLICPHRPWPDRQWGLCIFDDVIEHCSPASFKYAEYFLRPMLQYVCDNSPEVRQAAAYGLGVMAQYGGDNYRPFCTEALPLLVRVIQSADSKTKENVNATENCISAVGKIMKFKPDCVNVEEVLPHWLSWLPLHEDKEEAVQTFNYLCDLIESNHPIVLGPNNTNLPKIFSIIAEGEMHEAIKHEDPCAKRLANVVRQVQTSGGLWTECIAQLSPEQQAAIQELLNSA
With B1, the fold co-precipitated (IPO5/Ran) against Ran T24N is 2 fold.

The record behind these values is PMC3458550.
